How the values were obtained:
[1] = target: T1, human IL-5 protein (purchased from Beijing Yiqiao Shenzhou) (human, UniProt P05113 20-134); test: cell-based or functional assay
rat IL-5 with His-tag = target: T2, rat IL-5 with His-tag (rat, UniProt Q08125 20-132); test: ELISA, His-tagged IL-5 captured by anti-His antibody; rat
T2 construct: Expressed transiently in HEK293E and captured from the supernatant by a murine anti-His antibody; not shown: His-tag
T2 sequence (looked up): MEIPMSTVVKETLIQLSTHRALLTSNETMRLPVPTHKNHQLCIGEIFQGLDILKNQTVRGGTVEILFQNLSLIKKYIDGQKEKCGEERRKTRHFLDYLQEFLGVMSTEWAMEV
Text: (§1) IL-5 genes of rat, mouse, guinea pig and rabbit were synthesized and constructed into the pTT5 transient vector, respectively (All the sequences of the above genes are from http://www.uniprot.org, the mouse number is P04401, the rat number is Q08125, the guinea pig number is O08987, and the rabbit number is G1SL79), and then transiently expressed in HEK293E.

[2] = target: T3, human IL-5-His-tag antigen (human, UniProt P05113 20-134); test: ELISA, His-tagged IL-5 captured by anti-His antibody; human
T3 construct: Made in HEK293

mouse IL-5 with His-tag = target: T4, mouse IL-5 with His-tag (mouse, UniProt P04401 21-133); test: ELISA, His-tagged IL-5 captured by anti-His antibody; mouse
T4 construct: Expressed transiently in HEK293E and captured from the supernatant by a murine anti-His antibody; not shown: His-tag
T4 sequence (looked up): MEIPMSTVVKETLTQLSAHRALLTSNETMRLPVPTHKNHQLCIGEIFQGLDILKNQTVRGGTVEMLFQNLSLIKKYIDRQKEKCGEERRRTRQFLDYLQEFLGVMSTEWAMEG
Text: as §1

[3] = target: T5, guinea pig IL-5 with His-tag (guinea pig, UniProt O08987 20-135); test: ELISA, His-tagged IL-5 captured by anti-His antibody; guinea pig
T5 construct: Expressed transiently in HEK293E and captured from the supernatant by a murine anti-His antibody; not shown: His-tag
T5 sequence (looked up): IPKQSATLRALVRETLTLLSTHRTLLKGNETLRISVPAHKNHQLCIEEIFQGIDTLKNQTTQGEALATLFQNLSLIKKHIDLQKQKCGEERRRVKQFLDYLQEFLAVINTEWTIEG
Text: as §1

[4] = target: T1, human IL-5 protein (purchased from …); test: SPR Biacore T200, antibody captured on Protein A/G, IL-5 as analyte
Text: The specific experimental method was as follows: A CM5 sensor chip (GE healthcare) was activated with a Amine Coupling Kit (GE healthcare) and the Protein A/G fusion protein (Thermo Pierce) was immobilized on the chip with an lable amount of 2000 RU. FC3 (Flow cell 3) was a reference channel, and FC4 (Flow cell 4) was a sample channel.

[5] = target: T6, IL-5 mutant 86C to Alanine, with His-tag (human, UniProt P05113 20-134); test: capture ELISA: His-tagged IL-5 from HEK293E supernatant captured with murine anti-His antibody, detected with Goat-anti-Human-Fc-Specific-HRP; mean of four wells
T6 construct: Expressed transiently in HEK293E; used from the supernatant, captured by a murine anti-His antibody; not shown: His-tag

[6] = target: T7, IL-5 mutant 90R to Alanine, with His-tag (human, UniProt P05113 20-134); test: as above
T7 construct: Expressed transiently in HEK293E; used from the supernatant, captured by a murine anti-His antibody; not shown: His-tag

[7] = target: T8, IL-5 mutant 91R to Alanine, with His-tag (human, UniProt P05113 20-134); test: as above
T8 construct: Expressed transiently in HEK293E; used from the supernatant, captured by a murine anti-His antibody; not shown: His-tag

[8] = target: T9, IL-5 mutant 96F to Alanine, with His-tag (human, UniProt P05113 20-134); test: as above
T9 construct: Expressed transiently in HEK293E; used from the supernatant, captured by a murine anti-His antibody; not shown: His-tag

[9] = target: T10, IL-5 mutant 104L to Alanine, with His-tag (human, UniProt P05113 20-134); test: as above
T10 construct: Expressed transiently in HEK293E; used from the supernatant, captured by a murine anti-His antibody; not shown: His-tag

human IL-5-hFc [10] = target: T11, human IL-5-hFc (human, UniProt P05113 20-134); test: competition ELISA: IL-5-hFc coated, biotinylated IL-5RA-ECD-hFc as competitor
T11 construct: not shown: Fc segment of human IgG1
Procedure: (§2) After incubation for a period of time, the plate was washed and Streptavidin-HRP was added finally for color development detection.

human IL-5-hFc [11] = target: T11, human IL-5-hFc; test: blocking ELISA: plate coated with IL-5-hFc, antibody dilutions mixed with biotinylated IL-5RA-ECD-hFc (the blocked ligand), Streptavidin-HRP, OD450
Procedure: as §2

rabbit IL-5 with His-tag = target: T12, rabbit IL-5 with His-tag (rabbit, UniProt G1SL79 20-134); test: ELISA, His-tagged IL-5 captured by anti-His antibody
T12 construct: Expressed transiently in HEK293E and captured from the supernatant by a murine anti-His antibody
T12 sequence: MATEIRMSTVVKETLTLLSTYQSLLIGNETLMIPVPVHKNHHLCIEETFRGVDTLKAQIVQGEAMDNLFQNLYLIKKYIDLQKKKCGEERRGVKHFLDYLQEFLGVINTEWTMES
Text: as §1

B1: hu39D10 (antibody, V domains shown)
VH: EVQLVESGGGLVQPGGSLRLSCAVSGLSLTSNSVNWIRQAPGKGLEWVGLIWSNGDTDYNSAIKSRFTISRDTSKSTVYLQMNSLRAEDTAVYYCAREYYGYFDYWGQGTLVTVSS
VL: DIQMTQSPSSLSASVGDRVTITCLASEGISSYLAWYQQKPGKAPKLLIYGANSLQTGVPSRFSGSGSATDYTLTISSLQPEDFATYYCQQSYKFPNTFGQGTKVEVKR
With B1 the “IC50 for inhibiting IL-5-induced TF-1 cell proliferation (hu39D10)” value [1] was 0.0476 µg/mL, the EC50 (rat IL-5 with His-tag) was 0.132 µg/mL and the EC50 [2] was 0.078 µg/mL. The EC50 (mouse IL-5 with His-tag) was 0.0618 µg/mL, the EC50 [3] was 0.0531 µg/mL and the Kd [4] was 0.0136 nM. For the same binder, the koff [4] was 0.000156 s⁻¹, the kon [4] was 1.15e+07 M⁻¹ s⁻¹ and the OD450 [5] was 0.13. The OD450 [6] was 0.499, the OD450 [7] was 0.171 and the OD450 [8] was 0.456. It also gave an OD450 [9] of 0.11.

B2: chimeric antibody No. 4-6 (4-6-Chimeric) (antibody, human IgG1, V domains shown)
VH: QVQLQQSGAELVRPGASVKISCKAFGYTFTNHHINWVQQRPGQGLDWIGYINPYNDYSRYNQKFKGKATLTVDKSSSTAYMELSGLTSEDSAVYYCARDYGNFWYFDVWGAGTTVTVSS
VL: DIKMTQSPSSMYASLGERVTITCKASQDINSYLSWIQQKPGKSPKTLIHRADRLIDGVPSRFSGSGSGQDFSLTISSLEYEDMGIYYCLQYDDFPYTFGGGTKLEIK
With B2 the “IC50 for inhibiting IL-5-induced TF-1 cell proliferation (4-6-Chimeric)” value [1] was 0.0289 µg/mL, the Kd [4] was 0.013 nM and the koff [4] was 0.000196 s⁻¹. For the same binder, the kon [4] was 1.51e+07 M⁻¹ s⁻¹ and the IC50 (human IL-5-hFc [10]) was 0.98 µg/mL.

B3: control antibody 4-4-Humanized (antibody, human IgG1, V domains shown)
VH: QVQLVQSGAEVKKPGASVKVSCKASGYTFTDYYINWLRQAPGQGLEWIGWIYPGSGNTKYSEKFKDRATLTVDTSTSTVYMELSSLRSEDTAVYVCVRDGYYWYFDVWGQGTLVTVSS
VL: DIVMTQSPDSLAVSLGERATINCKSSQSLLNNYNQKNYLAWYQQKPGQPPKLLVYFTSTRESGVPDRFSGSGSGTDFTLTISSLQAEDVAVYFCQQHYSPPFTFGQGTKVEIK
B3 was tested, and the “IC50 (read off the curve)” value (human IL-5-hFc [11]) was ~4 µg/mL.

B4: humanized antibody No. 4-6 (4-6-Humanized) (antibody, human IgG1, kappa, V domains shown)
VH: QVQLVQSGAEVKKPGASVKVSCKASGYTFTNHHINWVRQAPGQGLEWIGYINPYNDYSRYNQKFKGRATLTVDKSTSTAYMELSSLRSEDTAVYYCARDYGNFWYFDVWGQGTLVTVSS
VL: DIQMTQSPSSLSASVGDRVTITCKASQDINSYLSWIQQKPGKAPKTLIHRADRLIDGVPSRFSGSGSGQDFTLTISSLQPEDFATYYCLQYDDFPYTFGQGTKVEIKR
notes: Human IgG1; Made in HEK293; also called 4-6-Humanized (293); 4-6-Humanized (CHO)
In the case of B4, the binding result (rabbit IL-5 with His-tag) is reported as “no binding”, the EC50 (rat IL-5 with His-tag) is reported as 2.13 µg/mL and the EC50 (mouse IL-5 with His-tag) is reported as 0.0521 µg/mL. For the same binder, the EC50 [3] was 0.0558 µg/mL.

Source: patent US20210171621A1 (SUNSHINE GUOJIAN PHARMACEUTICAL SHANGHAI, published 2021)
